Positions of bridges follow the written chain, without caps; N, C: chain ends. No end group written: not given here.
B1: alpha Klotho with the albumin binding construct … (SEQ ID NO: 4) attached to the terminal end (peptide, not shown: small tags and cut ends)
peptide: GGSGGSGGSGGRLIEDICLPRWGCLWEDD
modifications: disulfide 18-24 (inferred); also: fused to alpha Klotho, terminus not given here

How the values were obtained:
[1] = target: Native human Albumin Protein (human) (UniProt P02768); experiment: SPR (Nicoya OpenSPR), human albumin immobilised on COOH chip, mouse klotho as analyte at 0-40 nM
[2] = target: canine albumins (canine) (UniProt P49822); experiment: method not stated
Chain of UniProt P49822 (P49822 25-608 limits assumed): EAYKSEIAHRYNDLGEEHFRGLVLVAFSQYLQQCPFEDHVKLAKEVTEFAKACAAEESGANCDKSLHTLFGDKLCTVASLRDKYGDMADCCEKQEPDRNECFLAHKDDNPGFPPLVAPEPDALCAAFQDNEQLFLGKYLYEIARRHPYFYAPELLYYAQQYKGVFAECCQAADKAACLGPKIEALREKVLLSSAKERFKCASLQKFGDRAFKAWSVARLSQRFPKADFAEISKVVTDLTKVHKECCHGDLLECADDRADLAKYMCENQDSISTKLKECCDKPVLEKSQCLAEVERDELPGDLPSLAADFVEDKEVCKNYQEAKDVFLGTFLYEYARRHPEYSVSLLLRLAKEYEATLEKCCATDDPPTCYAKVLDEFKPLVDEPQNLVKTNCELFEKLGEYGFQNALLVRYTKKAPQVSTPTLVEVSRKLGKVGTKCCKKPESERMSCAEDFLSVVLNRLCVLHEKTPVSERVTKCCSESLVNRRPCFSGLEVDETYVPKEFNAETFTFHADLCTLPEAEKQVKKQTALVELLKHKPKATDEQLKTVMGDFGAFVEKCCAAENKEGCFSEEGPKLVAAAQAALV

Row | Molecule | Kd [1] [nM] | koff [1] [s⁻¹] | kon [1] [M⁻¹ s⁻¹] | Kd [2] [nM]
1 | Mouse klotho protein (from UniProt O35082 35-982) | 7.94 | 0.00681 | 858000 | –
2 | B1 | – | – | – | < 19
